Laboratory results as given in article doi:10.1101/2023.06.15.545135, “Structure of mechanically activated ion channel OSCA2.3 reveals mobile elements in the transmembrane domain” (bioRxiv, 2023).
Blank lines part the entries; values can stand above or below the molecule they belong to.

Assays:
[1] = molecular target: Arabidopsis thaliana OSCA1.2 (Arabidopsis thaliana) (UniProt Q5XEZ5); experiment: cryo-EM structure; OSCA1.2 reconstituted in peptidiscs, ~8 mg/mL; 2.8 Å map, C2 symmetry imposed
[2] = molecular target: the molecule itself; experiment: as above
[3] = molecular target: the molecule itself; experiment: cryo-EM structure; OSCA2.3 reconstituted in peptidiscs, ~3.6 mg/mL, TBS with 2 mM DTT; 2.7 Å map, C2 symmetry imposed

stoichiometry N [1]: 4 per protomer
Molecule: NSPr peptide (peptidisc peptide)

B1: Arabidopsis thaliana OSCA1.2 (natural protein)
chain: MATLQDIGVSAGINILSAFVFFIIFAVLRLQPFNDRVYFSKWYLKGLRSSPARGGAFAQRFVNLDFRSYMKFLNWMPEALKMPEPELIDHAGLDSVVYLRIYWLGLKIFTPIAVLAWAVLVPVNWTNNTLEMAKQLRNVTSSDIDKLSVSNIPEYSMRFWTHIVMAYAFTIWTCYVLMKEYETIANMRLQFVASEARRPDQFTVLVRNVPPDADESVSELVEHFFLVNHPDHYLTHQVVCNANKLADLVKKKKKLQNWLDYYQLKYARNNSQRIMVKLGFLGLWGQKVDAIEHYIAEIDKISKEISKEREEVVNDPKAIMPAAFVSFKTRWAAAVCAQTQQTRNPTQWLTEWAPEPRDVFWSNLAIPYVSLTVRRLIMHVAFFFLTFFFIVPIAFVQSLATIEGIVKAAPFLKFIVDDKFMKSVIQGFLPGIALKLFLAFLPSILMIMSKFEGFTSISSLERRAAFRYYIFNLVNVFLASVIAGAAFEQLNSFLNQSANQIPKTIGVAIPMKATFFITYIMVDGWAGVAGEILMLKPLIMFHLKNAFLVKTDKDREEAMDPGSIGFNTGEPRIQLYFLLGLVYAPVTPMLLPFILVFFALAYIVYRHQIINVYNQEYESAAAFWPDVHGRVIAALVISQLLLMGLLGTKHAALAAPFLIALPVLTIGFHHFCKGRYEPAFIRYPLQEAMMKDTLETAREPNLNLKGYLQNAYVHPVFKGDEDDYDIDDKLGKFEDEAIIVPTKRQSRRNTPAPSIISGDDSPSLPFSGKLV
notes: OSCA1.2 of Arabidopsis thaliana, UniProt Q5XEZ5; Final model holds residues 2-50, 71-121, 157-266, 290-487, 505-648, 654-718; also called AtOSCA1.2
binding result [2]: binds

B2: Arabidopsis thaliana OSCA2.3 (natural protein, UniProt Q8GUH7 1-703, looked up)
chain: MLLSALLTSVGINLGLCFLFFTLYSILRKQPSNVTVYGPRLVKKDGKSQQSNEFNLERLLPTAGWVKRALEPTNDEILSNLGLDALVFIRVFVFSIRVFSFASVVGIFILLPVNYMGTEFEEFFDLPKKSMDNFSISNVNDGSNKLWIHFCAIYIFTAVVCSLLYYEHKYILTKRIAHLYSSKPQPQEFTVLVSGVPLVSGNSISETVENFFREYHSSSYLSHIVVHRTDKLKVLMNDAEKLYKKLTRVKSGSISRQKSRWGGFLGMFGNNVDVVDHYQKKLDKLEDDMRLKQSLLAGEEVPAAFVSFRTRHGAAIATNIQQGIDPTQWLTEAAPEPEDVHWPFFTASFVRRWISNVVVLVAFVALLILYIVPVVLVQGLANLHQLETWFPFLKGILNMKIVSQVITGYLPSLIFQLFLLIVPPIMLLLSSMQGFISHSQIEKSACIKLLIFTVWNSFFANVLSGSALYRVNVFLEPKTIPRVLAAAVPAQASFFVSYVVTSGWTGLSSEILRLVPLLWSFITKLFGKEDDKEFEVPSTPFCQEIPRILFFGLLGITYFFLSPLILPFLLVYYCLGYIIYRNQLLNVYAAKYETGGKFWPIVHSYTIFSLVLMHIIAVGLFGLKELPVASSLTIPLPVLTVLFSIYCQRRFLPNFKSYPTQCLVNKDKADEREQNMSEFYSELVVAYRDPALSASQDSRDISP
notes: OSCA2.3 of Arabidopsis thaliana, UniProt Q8GUH7, full-length, human codon optimized cDNA; 703 residues as printed; C-terminal PreScission Protease site with 4-5 residue linkers before the tags; After PreScission cleavage, remnants of the linker and of the cleavage site stay at the C-terminus; Final model holds residues 3-26, 65-115, 129-225, 302-368, 410-517 and 536-691; also called AtOSCA2.3; …
stoichiometry N [3]: 2
